{"source": "paper PMC6471365", "about": "(Pathogens, 2019)", "molecules": {"B1": {"name": "Staphylococcus aureus superantigen-like protein SSL1 of strain Newman, native secreted protein (natural protein)", "chain": "KAEVKQQSESELKHYYNKPILERKNVTGFKYTDEGKHYLEVTVGQQHSRITLLGSDKDKFKDGENSNIDVFILREGDSRQATNYSIGGVTKSNSVQYIDYINTPILEIKKDNEDVLKDFYYISKEDISLKELDYRLRERAIKQHGLYSNGLKQGQITITMNDGTTHTIDLSQKLEKERMGESIDGTKINKILVEMK", "notes": "also called the toxin; the protease"}}, "key": {"[1]": {"molecular_target": "Recombinant SSL1 of S. aureus ocular isolate 295.236 (allele type 2) (Staphylococcus aureus isolate 295.236)"}, "[2]": {"molecular_target": "Recombinant SSL1 of S. aureus strain MW2 (allele type 1) (Staphylococcus aureus strain MW2)"}, "[3]": {"molecular_target": "Recombinant SSL1 of S. aureus strain Newman (allele type 3) with a C-terminal 6-His tag (Staphylococcus aureus strain Newman)"}, "[4]": {"molecular_target": "the molecule itself", "experiment": "gelatin zymography with SDS compared with reduced, denaturing SDS-PAGE"}}}
{"molecule": "Recombinant SSL1 of S. aureus ocular isolate 295.236 (allele type 2) (from UniProt A0A0H3KAV3 31-226) (natural protein)", "values": [{"measurement": "stoichiometry N", "setting": "[1]", "result": 2}]}
{"molecule": "Recombinant SSL1 of S. aureus strain MW2 (allele type 1) (from UniProt A0A0H3KAV3 31-226) (natural protein)", "values": [{"measurement": "stoichiometry N", "setting": "[2]", "result": 2}]}
{"molecule": "Recombinant SSL1 of S. aureus strain Newman (allele type 3) with a C-terminal 6-His tag (from UniProt A0A0H3KAV3 31-226) (natural protein)", "values": [{"measurement": "stoichiometry N", "setting": "[3]", "result": 2}]}
{"molecule": "B1", "values": [{"measurement": "stoichiometry N", "setting": "[4]", "result": 2}]}
